Assay results as given in article PMC11741385 (bioRxiv, 2025).

Biological target: the molecule itself
Test: cryo-EM structure

B1: Candida albicans Pra1 (recombinant, full-length excluding the signal peptide) (natural protein, UniProt P87020 16-299, looked up)
chain: APVTVTRFVDASPTGYDWRADWVKGFPIDSSCNATQYNQLSTGLQEAQLLAEHARDHTLRFGSKSPFFRKYFGNETASAEVVGHFDNVVGADKSSILFLCDDLDDKCKNDGWAGYWRGSNHSDQTIICDLSFVTRRYLTQLCSSGYTVSKSKTNIFWAGDLLHRFWHLKSIGQLVIEHYADTYEEVLELAQENSTYAVRNSNSLIYYALDVYAYDVTIPGEGCNGDGTSYKKSDFSSFEDSDSGSDSGASSTASSSHQHTDSNPSATTDANSHCHTHADGEVHC
modifications: N-linked glycosylation at Asn48, Asn89, Asn135 and Asn208; three intramolecular disulphide bonds
- stoichiometry N: 6
